B1: 180C 9D5: anti-naltrexone monoclonal antibody generated using naltrexone-3-Val-mcKLH; heavy chain SEQ ID NO:121, light chain SEQ ID NO:125 (antibody)
heavy: MGWNYIFLFLIATVTDVHSQVRLQQPGTDLVKPGASVKLSCRASGFTFTNYWMNWVKQRPGQGLEWIGEINTNGGTKYNENFKNKATLTVDQSSSTAYIQLSGLTSEDSAVYFCNYFDGNYDYWGQGTLTVSS
light: MEFHTQVFVFVFLWLSGVDGDIVMTQSQKFMSTPVGDRVSLTCRASQNVGTAVAWYQQKPGQPPKLLIYSTSNRFTGVPSRFTGSGSGTDFTLTITNMQSEDLADYFCHQYSSYPYTFGGGTKLEIK
modifications: Amino acid sequence for heavy chain of monoclonal antibody 180C 9D5; Amino acid sequence for light chain of monoclonal antibody 180C 9D5
B2: 180B 13F7: anti-naltrexone monoclonal antibody generated using naltrexone-3-Val-mcKLH; heavy chain SEQ ID NO:41, light chain SEQ ID NO:45 (antibody)
heavy: MRVLILVYLLTALPGILSDIQLQESGPGLVKPSQTVSLTCTVTGYSITYVNHWWNWIRQVSGNKLEWIGYISSSGSIDSNPSLKSRIAITRDTSKNQLFLQLKSVTTEDVGTYYCVSEDSSGYHYWGGTTLTVSS
light: MKLPVRLLVLMFWIPASSSDVVMTQTPLSLPVSLGDQASISCRSSQSLVFSNGKTYFHWYLQKPGQSPKLLIYRVSNRFSGVPDRFSGSGSGTDFTLKISRVEAEDLGVYFCSQSTHVPWTFGGGTKLEIK
modifications: Amino Acid sequence of heavy chain of monoclonal antibody 180B 13F7; Amino Acid sequence of light chain of monoclonal antibody 180B 13F7
B3: 180C 1F8: anti-naltrexone monoclonal antibody generated using naltrexone-3-Val-mcKLH; heavy chain SEQ ID NO:61, light chain SEQ ID NO:65 (antibody)
heavy: MEWSWIFLFFLSVTTGVHSQVQLQQSDAELVKPGTSVKISCKASGFTFTDHAIHWVKQRPEQGLEWIGYISPGNGDIKYNEKFKGKATLTADKSSSTAYMQLNSLTSEDSAVYFCDYYNGRVDYWGQTTLTVSS
light: MEFHTQVFVFVFLWLSGVDGDIVMTQSQKFMTTSVGDRVSITCKASQNVGSAVAWYQQKPGQSPKLLIYSASNRFTGVPDRFTGSGSRTDFTLTISNMQSDDLADYFCHQYRSYPYTFGGGTKLEIK
modifications: Amino Acid sequence of heavy chain of monoclonal antibody 180C 1F8; Amino Acid sequence of light chain of monoclonal antibody 180C 1F8
B4: 179B 9G1.1: anti-naloxone monoclonal antibody generated using naloxone-3-Val-mcKLH; heavy chain SEQ ID NO:161, light chain SEQ ID NO:165 (antibody)
heavy: MEWPCIFLFLLSVTEGVHSQVQLQQSGPELVKPGASVMISCKVFGDIFSSSWMNWVKQRPGKGLEWIGWICPGNGATKYNGKFKGKATLTADKSSGTGYMQLSSLTSEDSAVYFCELGRRDGYLDVWAGTTVTVSS
light: MESQTQVFVYMLLWLSGVDGDIVMTQSQKFIFTSEGDRVSVTCKASQNVGTNIAWYQQKPGQSPKALIYSASNRYSGVPDRFTGSGSGTDFTLTFSNVQSEDLAEYFCLQYNNYPWTFGGGTKLEIK
modifications: Amino acid sequence of heavy chain of monoclonal antibody 179B 9G1.1; Amino acid sequence of light chain of monoclonal antibody 179B 9G1.1
B5: 180C 9G8: anti-naltrexone monoclonal antibody generated using naltrexone-3-Val-mcKLH; heavy chain SEQ ID NO:141, light chain SEQ ID NO:145 (antibody, V domains shown)
VH: MYLGLNCVIIVFLLKGVQSEVKLEESGGGLVQPGGSMKLSCAASGFTFSDAWMDWVRQSPEKGLEWVAEIRNKANNHATYYAESVKGRFTISRDDSNSRMFLQMDSLRAEDTGIYYCIGGIPRYFDVGAGTTVTVSS
VL: MESQTQVFVYMLLWLSGVDGDIVMTQSQKFMSTSVGDRVSITCKASQNVRTYVAWYQQKPGQSPKALLYSASYRYSGVPDRFIGSGSGTQFTLTISDVQSEDLAEYFCHQYNSYPLTFGGGTKLEIQ
modifications: Amino acid sequence of heavy chain of monoclonal antibody 180C 9G8; Amino acid sequence of light chain of monoclonal antibody 180C 9G8
B6: 180C 8A10: anti-naltrexone monoclonal antibody generated using naltrexone-3-Val-mcKLH; heavy chain SEQ ID NO:101, light chain SEQ ID NO:105 (antibody)
heavy: MGWSYIFLFLVATVTDVHSQVQLQQPGAELVKPGASVKLSCKASGYTFTNYWINWVKQRPGQGLEWLGEINPSNSNTKYNEKFKSRATLTADKSSSTAYMQLHSLTSEDSAVYYCNYYDGGHDSWGQTTLTVSS
light: MEFHTQVFVFVFLWLSGVDGDIVMTQSQKFMSTTLGDRVSIICKASQNVGTAVAWYQQKPGQSPKLLIYSTSNRYTGVPDRFTGSGSGTDFSLTISSVQSEDLADYFCHQYSSYLYTFGGGTRLEIK
modifications: Amino acid sequence of heavy chain of monoclonal antibody 180C 8A10; Amino acid sequence of light chain of monoclonal antibody 180C 8A10
B7: 180C 7G8: anti-naltrexone monoclonal antibody generated using naltrexone-3-Val-mcKLH; heavy chain SEQ ID NO:81, light chain SEQ ID NO:85 (antibody, V domains shown)
VH: MYLGLNCVIIVFLLKGVQSEVKLEESGGGLVQPGGSVKLSCAVFGFTFSDPWMDWVRQSPEKGLEWVAEIRNKAYNHATYYAESVKGRFTISRDDSNSRVSLQMNNLRAEDTGVYYCTAGDSSHSYWQGTLVTVSA
VL: MEFQTQVFVFVLLWLSGVDGDIVMTQSQKFMSTSVGDRVSIICKASQNVRTAVAWYQQKPGQSPKTLIYLASNRHTGVPDRFTGSGSGTDFTLTISNVQAEDLADYFCLQHWNYPLTFGGGTKLEIK
modifications: Amino acid sequence of heavy chain of monoclonal antibody 180C 7G8; Amino acid sequence of light chain of monoclonal antibody 180C 7G8

Tests used:
[1] = inhibition ELISA, anti-naltrexone monoclonal antibodies against key opioids (FIG. 8); assay type: binding; conditions: free drug 20 μg/mL, plates coated with ovalbumin conjugate
Text: (§1) Mice with good anti-drug antibody titers and binding to free drug in the ELISA inhibition assays were selected to proceed with generation of monoclonal antibodies, in a similar manner to that described in U.S. Pat. No. 9,815,907 (issued to Sharma et al. on Nov. 14, 2017). In particular, mice with highest titers and best specificity were boosted three days prior to fusion. On the day of fusion, spleen cells were harvested from these mice and were fused with myeloma cell line P3X63Ag8.653 using PEG-assisted fusion protocols. After about ten days, hybridoma supernatants were screened for anti-naloxone and anti-naltrexone antibodies using a plate ELISA (direct binding and inhibition ELISA for specificity). Positive clones were further expanded and sub-cloned, and supernatants were purified using a Protein A SEPHAROSE® (GE Healthcare, Chicago, IL) column. Purified antibody samples were tested using ELISA for binding to the immunogen (i.e., a conjugate of drug-carrier protein) and to free opioids.
(§2) Antibody solution (Immune mouse bleeds or hybridoma clones supernatant or purified antibody) was screened using an inhibition ELISA procedure according to the following protocol. […] Plate coating was performed for 1 hour or more at room temperature or overnight at about 2° C. to 8° C. The plates were then flicked dry and blocked with 200 μL per well of blocking buffer solution (0.5% Casein solution in PBS containing 0.05% TWEEN® 20 surfactant (Croda International PLC, Snaith, United Kingdom). Plate blocking was performed by incubation for 30 minutes or more at room temperature with plate shaking. The plates were washed using a plate washer (BioTek®, Winooski, VT) with plate stacker with the washing buffer being MILLIQ® water (Millipore Corporation, Billerica, MA) containing 0.05% TWEEN® 20. The monoclonal antibody to be screened was then added to each well along with free drug as follows: 25 μL per well of appropriately diluted culture supernatant (or antibody solution) and added 25 μL of 20 μg/mL of free drug. Incubation was performed for about 1 hour at room temperature with plate shaking. The plate was washed. An enzyme conjugate (goat anti-mouse IgG coupled to HRP diluted in blocking buffer diluted to 1:3000) was added at 50 μL per well. Incubation was performed for about 1 hour at room temperature with shaking. The plate was then washed, and a chromogenic solution (TMB from Moss Substrates, Pasadena MD) was added at a volume of 100 μL per well. If a desired antibody was present in the hybridoma supernatant, then a decrease in optical density was observed compared to the well containing no free drug. The plates were read at 650 nm wavelength using an ELISA plate reader (Molecular Devices, San Jose, CA). Note: appropriate dilution of antibody solution was determined by performing a titration ELISA. The antibody dilution was chosen where around 1.0 optical density was observed.

[2] = inhibition ELISA, anti-naloxone monoclonal antibodies against key opioids (FIG. 7); assay type: binding; conditions: free drug 20 μg/mL, plates coated with ovalbumin conjugate
Text: as §1, §2

Row | Molecule | specificity for naltrexone over the other key opioids tested in the inhibition ELISA assay [1] | specificity for naloxone over the other key opioids tested in the inhibition ELISA assay [2]
1 | B1 | good specificity for naltrexone | –
2 | B2 | good specificity for naltrexone | –
3 | B3 | good specificity for naltrexone | –
4 | B4 | – | good specificity for naloxone
5 | B5 | good specificity for naltrexone | –
6 | B6 | good specificity for naltrexone | –
7 | B7 | good specificity for naltrexone | –
